Data as given in US20160340743.

Molecular target: GSK-3 fusion protein (kinase substrate, Nonradioactive AKT Kinase Assay Kit, Cell signaling 9840)

B1: BCAM-AKT2-FLAG (cloned from patient S4, expressed in OVCAR8 cells) (protein)
chain: EVRLSVPPLVEVMRGKSVILDYTPTGTHDHYMLEWFLTDRSGARPRLASAEMQGSELQVTMHDTRGRSPPYQLDSQGRLVLAEAQVGDERDYVCVVRAGAAGTAEATARLNVFAKPEATEVSPNKGTLSVMEDSAQEIATCNSRNGNPAPKITWYRNGQRLEVPVEMNPEGYMTSRTVREASGLLSLTSTLYLRLRKDDRDASFHCAAHYSLPEGRHGRLDSPTFHLTLHYPTEHVQFWVGSPSTPAGWVREGDTVQLLCRGDGSPSPEYTLFRLQDEQEEVLNVNLEGYLTLEGVTRGQSGTYGCRVEDYDAADDVQLSKTLELRVAYLDPLELNEGKVLSLPLNSSAVVNCSVHGLPTPALRWTKDSTPLGDGPMLSLSSITFDSNGTYVCEASLPTVPVLSRTQNFTLLVQGSPGLKTAEIEPKADGSWREGDEVTLICSARGHPDPKLSWSQLGGSPAEPIPGRQGWVSSSLTLKVTSALSRDGISCEASNPHGNKRHVFHFGTVSPQTSQAGVAVMAVAVSVGLLLLVVAVFYCVRRKGGPCCRQRREKGAPEEWMRAIQMVANSLKQRAPGEDPMDYKCGSPSDSSTTEEMEVAVSKARAKVTMNDFDYLKLLGKGTFGKVILVREKATGRYYAMKILRKEVIIAKDEVAHTVTESRVLQNTRHPFLTALKYAFQTHDRLCFVMEYANGGELFFHLSRERVFTEERARFYGAEIVSALEYLHSRDVVYRDIKLENLMLDKDGHIKITDFGLCKEGISDGATMKTFCGTPEYLAPEVLEDNDYGRAVDWWGLGVVMYEMMCGRLPFYNQDHERLFELILMEEIRFPRTLSPEAKSLLAGLLKKDPKQRLGGGPSDAKEVMEHRFFLSINWQDVVQKKLLPPFKPQVTSEVDTRYFDDEFTAQSITITPPDRYDSLGLLELDQRTHFPQFSYSASIRE
phosphorylation of GSK-3 (in vitro kinase assay, western blot with anti-phospho-GSK-3): incubation with immunoprecipitated BCAM-AKT2 led to efficient phosphorylation of GSK-3
